This passage reports MFI results from patent US20260234738A1 (Regeneron, published 2026).

Common to all, as to test: Luminex beads, supernatant
In test [1] the target is Bt-SARS-CoV-2 Spike Protein (RBD) (R319-F541).mFc (SARS-CoV-2).
The target of test [2] is SARS-CoV-2 Spike Protein (RBD) (R319-F541).mFc (SARS-CoV-2).
The target of test [3] is SARS-CoV-2 Spike Protein (RBD) (R319-F541).hFc (SARS-CoV-2).

Changes are numbered by the printed parent chain.

B1: mAb10936 (antibody, V domains shown)
VH: QVQLVESGGGVVQPGRSLRLSCAASGFTFRNYGMHWVRQAPGKGLEWVSVIWYDGSNRYYADSVKGRFTISRDTSKNTLYLQMNSLRAEDTAVYYCARDPPITGTTGGDAFDIWGQGTMVTVSS
VL: not shown
With B1, the MFI in test [1] turned out to be 21600 MFI; in test [2] it was 33700 MFI; in test [3], 33900 MFI.

B2: mAb10920 (antibody, V domains shown)
VH: QVQLVESGGGVVQPGRSLRLSCAASGFTFSYYGMHWVRQAPGKGLEWVAVIWYDGSNKFYADSVKGRFTISRDNSKNTLYLQMNSLRAEDTAVYYCAAARPGYYYGMDVWGQGTTVTVSS
VL: DIQMTQSPSSLSASVGDRVTITCRASQGISNYLAWFQQKPGKAPNSLIYAASSLQRGVPSKFSGSGSGTDFTLTISSLQPEDFATYYCQQYNSYPRTFGQGTKVEIKR
B2: the MFI was found to be 20300 MFI in test [1], 36400 MFI in test [2] and 36800 MFI in test [3].

B3: mAb10915 (antibody, V domains shown)
VH: EVQLVESGGGLVQPGGSLRLSCAASGFTVSSNYMNWVRQAPGKGLEWVSVIYSGGSTFYADSVKGRFTISRHNSKNTLYLQMNSLRPEDTAVYYCARDLGGYFDYWGQGTLVTVSS
VL: not shown
Take B3: the MFI in test [1] worked out at 20100 MFI; in test [2] it was 31800 MFI; in test [3], 32400 MFI.

B4: mAb10934 (antibody, V domains shown)
VH: not shown
VL: DIQMTQSPSSLSASVGDRVTITCQASQDIWNYINWYQQKPGKAPKLLIYDASNLKTGVPSRFSGSGSGTDFTFTISSLQPEDIATYYCQQHDDLPPTFGQGTKVEIKR
On to B4, for which the values for the MFI in test [1], in test [2] and in test [3] were 21200 MFI, 34300 MFI and 35800 MFI, respectively.

B5: mAb10935 (antibody, V domains shown)
VH: EVQLVESGGGLVQPGGSLRLSCAASGFTVSSNYMSWVRQAPGKGLEWVSLIYSGGSTYYADSVKGRFTISRHNSKNTLYLQMNSLRSEDTAVYYCARVPLGDYYYGMDVWGQGTTVTVSS
VL: B4 VL with W30N, N31K, I33L, K55E, H91S, D93N, P96L, Q100G
Regarding B5, the MFI in test [1] stood at 19300 MFI; in test [2] it was 35900 MFI; in test [3], 35600 MFI.

B6: mAb10914 (antibody, V domains shown)
VH: EVQLVESGGGLVQPGGSLRLSCAASGLIVSRNYMIWVRQAPGKGLEWVSVIYSGGSTFYADSVKGRFTISRHNSKNTLYLQMNSLRAEDTAVYYCARDLGTGGMDVWGQGTTVTVSS
VL: DIQLTQSPSFLSASVGDRVTITCWASQGISSYLAWYQQKPGKAPKLLIYAASTLQSGVPSRFSGSGSGTEFTLTISSLQPEDFATYYCQQLNSYPLTFGGGTKVEIKR
As for B6, the MFI in test [1] is 16000 MFI; in test [2], 30700 MFI; in test [3], 30500 MFI.

B7: mAb10937 (antibody, V domains shown)
VH: QITLKESGPTLVKPTQTLTLTCTFSGFSLSTNVVGVGWIRQPPGKALEWLALIYWNDDKRYSPSLKSRLTITKDTSKNQVVLTMTNMDPVDTATYYCAHGPTGDYFDYWGQGTLVTVSS
VL: not shown
As to B7, the MFI is 19700 MFI in test [1], 34200 MFI in test [2] and 34600 MFI in test [3].

B8: mAb10932 (antibody, V domains shown)
VH: EVQLVESGGGLVQSGGSLRLSCAASGLTVSSNYMSWVRQAPGKGLEWVSVIYSGGSTFYSDSVKGRFTISRHNSKNTLYLQMNSLRAEDTAVYYCARARGDAFDIWGQGTMVTVSS
VL: not shown
As to B8, the MFI in test [1] amounted to 17700 MFI; in test [2], 30600 MFI; in test [3], 30600 MFI.

B9: mAb10913 (antibody, V domains shown)
VH: EVQLVESGGGLVQPGGSLRLSCAASGFTFRNYEMNWVRQAPGKGLEWVSYITSSGSTMYYADSVKGRFTISRDNAKNSLYLQMNSLRAEDTAVYYCARDGFYYYYAMDVWGQGTTVTVSS
VL: QSVLTQPPSVSAAPGQKVTISCSGSSSNIGNNYVSWYQQLPGTAPKLLIYDNNKRPSGIPDRFSGSKSGTSATLGITGLQTGDEADYYCGTWDSSLSVGRVFGTGTKVTVLG
B9: the MFI came to 16600 MFI in test [1], 33000 MFI in test [2] and 31900 MFI in test [3].
